# According to patent US20110275559A1, “Long-Acting Y2 and/or Y4 Receptor Agonists” (Novo Nordisk A/S, priority 2008, published 2011):
# *1 amine or outer side, *2 acyl side, *3 side chain or, on linkers, in order; H or OH if unused. Where a SMILES comes first, the peptide text is derived from it. Where no end group is shown, it is not given here. Side-chain parts run from the residue outwards. The star is where a group is joined. C20 diacid = O=C(O)CCCCCCCCCCCCCCCCCCC(=O)*; C18 diacid = O=C(O)CCCCCCCCCCCCCCCCC(=O)*; γGlu = O=C(O)[C@H](CCC(=O)[*:2])N[*:1]; Trx = NC[C@H]1CC[C@H](C(=O)O)CC1; AEEA = NCCOCCOCC(=O)O
# T1: Y2 receptor (UniProt P49146 1-381, limits assumed)
# T1 sequence (looked up): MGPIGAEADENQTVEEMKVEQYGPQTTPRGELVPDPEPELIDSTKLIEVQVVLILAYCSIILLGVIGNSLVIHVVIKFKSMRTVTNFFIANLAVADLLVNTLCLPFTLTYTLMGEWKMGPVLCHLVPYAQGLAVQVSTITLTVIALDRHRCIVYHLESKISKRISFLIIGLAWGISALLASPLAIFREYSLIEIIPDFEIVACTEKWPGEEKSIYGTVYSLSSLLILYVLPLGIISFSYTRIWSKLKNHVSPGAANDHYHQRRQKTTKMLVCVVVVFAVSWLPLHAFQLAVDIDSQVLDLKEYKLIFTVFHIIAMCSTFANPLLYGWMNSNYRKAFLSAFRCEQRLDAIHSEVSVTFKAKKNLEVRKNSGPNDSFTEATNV
# T2: Y2 receptor (Homo sapiens, UniProt P49146)
# T2 construct: host or cells: ACTOne HEK-293 cells
# T2 sequence (P49146 1-381): T1 sequence (looked up)
# B1: N-epsilon13-[2-(2-{2-[2-(2-{2-[(S)-4-Carboxy-4-({trans-4-[(19-carboxynonadecanoylamino)methyl]cyclohexanecarbonyl}amino)butyrylamino]-ethoxy}ethoxy)acetylamino] … (peptide)
# peptide: APLEPVYPGNDAK([AEEA-AEEA-γGlu-Trx-C20 diacid])PEQLAQYAADLRRYINLVTRPRY
# modifications: ends and bridges not checked
# B2: N-epsilon35-[2-(2-{2-[2-(2-{2-[(S)-4-Carboxy-4-({trans-4-[(19-carboxynonadecanoylamino)methyl]cyclohexanecarbonyl}amino)butyrylamino]-ethoxy}ethoxy)acetylamino] … (peptide)
# peptide: PLEPVYPGDNATPEQLAQYAADLRRYINLLTRPK([AEEA-AEEA-γGlu-Trx-C20 diacid])Y
# modifications: ends and bridges not checked
# B3: N-epsilon11-[2-(2-{2-[2-(2-{2-[(S)-4-Carboxy-4-(17-carboxyheptadecanoylamino)butyrylamino]ethoxy}ethoxy)acetylamino]-ethoxy}ethoxy)acetyl][Lys11,Leu17,Leu30]hPP … (peptide)
# peptide: PLEPVYPGDK([AEEA-AEEA-γGlu-C18 diacid])ATPEQLAQYAADLRRYINLLTRPRY
# modifications: ends and bridges not checked
# B4: N-epsilon18-[2-(2-{2-[2-(2-{2-[(S)-4-Carboxy-4-(17-carboxyheptadecanoylamino)butyrylamino]ethoxy}ethoxy)acetylamino]-ethoxy}ethoxy)acetyl][Lys18,Leu17,Leu30]hPP … (peptide)
# peptide: PLEPVYPGDNATPEQLK([AEEA-AEEA-γGlu-C18 diacid])QYAADLRRYINLLTRPRY
# modifications: ends and bridges not checked
# B5: N-epsilon13-[2-(2-{2-[2-(2-{2-[(S)-4-Carboxy-4-({trans-4-[(19-carboxynonadecanoylamino)methyl]cyclohexanecarbonyl}amino)butyrylamino]-ethoxy}ethoxy)acetylamino] … (peptide)
# peptide: APLEPVYPGDNAK([AEEA-AEEA-γGlu-Trx-C20 diacid])PEQLAQYAADLRRYINVLTRQRY
# modifications: ends and bridges not checked
# B6: N-epsilon26-[2-(2-{2-[2-(2-{2-[(S)-4-Carboxy-4-({trans-4-[(19-carboxynonadecanoylamino)methyl]cyclohexanecarbonyl}amino)butyrylamino]-ethoxy}ethoxy)acetylamino] … (peptide)
# peptide: PLEPVYPGDNATPEQLAQYAADLRK([AEEA-AEEA-γGlu-Trx-C20 diacid])YINLLTRPRY
# modifications: ends and bridges not checked
# B7: N-epsilon26-[2-(2-{2-[2-(2-{2-[(S)-4-Carboxy-4-(17-carboxyheptadecanoylamino)butyrylamino]ethoxy}ethoxy)acetylamino]-ethoxy}ethoxy)acetyl][Leu17,Lys26,Leu30]hPP … (peptide)
# peptide: PLEPVYPGDNATPEQLAQYAADLRK([AEEA-AEEA-γGlu-C18 diacid])YINLLTRPRY
# modifications: ends and bridges not checked
# B8: N-epsilon25-[2-(2-{2-[2-(2-{2-[(S)-4-Carboxy-4-({trans-4-[(19-carboxynonadecanoylamino)methyl]cyclohexanecarbonyl}amino)butyrylamino]-ethoxy}ethoxy)acetylamino] … (peptide)
# peptide: PLEPVYPGDNATPEQLAQYAADLK([AEEA-AEEA-γGlu-Trx-C20 diacid])RYINLLTRPRY
# modifications: ends and bridges not checked
# B9: N-epsilon13-[2-(2-{2-[2-(2-{2-[(S)-4-Carboxy-4-({trans-4-[(19-carboxynonadecanoylamino)methyl]cyclohexanecarbonyl}amino)butyrylamino]-ethoxy}ethoxy)acetylamino] … (peptide)
# peptide: APLEPVYPGDNAK([AEEA-AEEA-γGlu-Trx-C20 diacid])PEQLAQYAADLRRYIQLLTRPRY
# modifications: ends and bridges not checked
# B10: N-epsilon11-[2-(2-{2-[2-(2-{2-[(S)-4-Carboxy-4-({trans-4-[(19-carboxynonadecanoylamino)methyl]cyclohexanecarbonyl}amino)butyrylamino]-ethoxy}ethoxy)acetylamino] … (peptide)
# peptide: PLEPVYPGDK([AEEA-AEEA-γGlu-Trx-C20 diacid])ATPEQLAQYAADLRRYINLLTRPRY
# modifications: ends and bridges not checked
# B11: N-epsilon33-[2-(2-{2-[2-(2-{2-[(S)-4-Carboxy-4-({trans-4-[(19-carboxynonadecanoylamino)methyl]cyclohexanecarbonyl}amino)butyrylamino]-ethoxy}ethoxy)acetylamino] … (peptide)
# peptide: PLEPVYPGDNATPEQLAQYAADLRRYINLLTK([AEEA-AEEA-γGlu-Trx-C20 diacid])PRY
# modifications: ends and bridges not checked
# B12: N-alfa-[2-(2-{2-[2-(2-{2-[(S)-4-Carboxy-4-({trans-4-[(19-carboxynonadecanoylamino)methyl]cyclohexanecarbonyl}amino)butyrylamino]-ethoxy}ethoxy)acetylamino]ethox … (peptide)
# peptide: APLEPVYPGDNATPEQLAQYAADLRRYINLLTRPRY
# modifications: not fully specified (N-terminus); printed as N-alfa-[2-(2-{2-[2-(2-{2-[(S)-4-Carboxy-4-({trans-4-[(19-carboxynonadecanoylamino)methyl]cyclohexanecarbonyl}amino)butyrylamino]-ethoxy}ethoxy)acetylamino]ethoxy}ethoxy)acetyl][Leu17,Leu30]hPP1-36; ends and bridges not checked
# B13: N-epsilon13-[2-(2-{2-[2-(2-{2-[(S)-4-Carboxy-4-({trans-4-[(19)-carboxynonadecanoylamino)methyl]cyclohexanecarbonyl}amino)butyrylamino]-ethoxy}ethoxy)acetylamino … (peptide)
# peptide: APLEPVYPGDNAK([AEEA-AEEA-γGlu-Trx-C20 diacid])PEQLAQYAADLRRYINLLTRQRY
# modifications: ends and bridges not checked
# B14: N-epsilon13-[2-(2-{2-[2-(2-{2-[(S)-4-Carboxy-4-({trans-4-[(19-carboxynonadecanoylamino)methyl]cyclohexanecarbonyl}amino)butyrylamino]-ethoxy}ethoxy)acetylamino] … (peptide)
# peptide: APLEPVYPGDNAK([AEEA-AEEA-γGlu-Trx-C20 diacid])PEQLAQYAADLRRYLNVLTRQRY
# modifications: ends and bridges not checked
# B15: N-epsilon29-[2-(2-{2-[2-(2-{2-[(S)-4-Carboxy-4-({trans-4-[(19-carboxynonadecanoylamino)methyl]cyclohexanecarbonyl}amino)butyrylamino]-ethoxy}ethoxy)acetylamino] … (peptide)
# peptide: PLEPVYPGDNATPEQLAQYAADLRRYIK([AEEA-AEEA-γGlu-Trx-C20 diacid])LLTRPRY
# modifications: ends and bridges not checked
# B16: [Leu17,Leu30]hPP2-36 (peptide)
# peptide: PLEPVYPGDNATPEQLAQYAADLRRYINLLTRPRY
# modifications: ends and bridges not checked
# B17: N-epsilon13-[2-(2-{2-[2-(2-{2-[(S)-4-Carboxy-4-({trans-4-[(19-carboxynonadecanoylamino)methyl]cyclohexanecarbonyl}amino)butyrylamino]-ethoxy}ethoxy)acetylamino] … (peptide)
# peptide: APLEPVYPGDNAK([AEEA-AEEA-γGlu-Trx-C20 diacid])PEQLAQYAADLRRYVNLLTRQRY
# modifications: ends and bridges not checked
# B18: N-epsilon33-[2-(2-{2-[2-(2-{2-[(S)-4-Carboxy-4-(17-carboxyheptadecanoylamino)butyrylamino]ethoxy}ethoxy)acetylamino]-ethoxy}ethoxy)acetyl][Leu17,Leu30,Lys33]hPP … (peptide)
# peptide: PLEPVYPGDNATPEQLAQYAADLRRYINLLTK([AEEA-AEEA-γGlu-C18 diacid])PRY
# modifications: ends and bridges not checked
# B19: N-epsilon35-[2-(2-{2-[2-(2-{2-[(S)-4-Carboxy-4-(17-carboxyheptadecanoylamino)butyrylamino]ethoxy}ethoxy)acetylamino]-ethoxy}ethoxy)acetyl][Leu17,Leu30,Lys35]hPP … (peptide)
# peptide: PLEPVYPGDNATPEQLAQYAADLRRYINLLTRPK([AEEA-AEEA-γGlu-C18 diacid])Y
# modifications: ends and bridges not checked
# B20: N-epsilon18-[2-(2-{2-[2-(2-{2-[(S)-4-Carboxy-4-({trans-4-[(19-carboxynonadecanoylamino)methyl]cyclohexanecarbonyl}amino)butyrylamino]-ethoxy}ethoxy)acetylamino] … (peptide)
# peptide: PLEPVYPGDNATPEQLK([AEEA-AEEA-γGlu-Trx-C20 diacid])QYAADLRRYINLLTRPRY
# modifications: ends and bridges not checked
# Biological target: Y4 receptor (UniProt P50391 1-375, limits assumed)
# Assay: cell-based or functional assay
# Chain of Y4 receptor (P50391 whole entry): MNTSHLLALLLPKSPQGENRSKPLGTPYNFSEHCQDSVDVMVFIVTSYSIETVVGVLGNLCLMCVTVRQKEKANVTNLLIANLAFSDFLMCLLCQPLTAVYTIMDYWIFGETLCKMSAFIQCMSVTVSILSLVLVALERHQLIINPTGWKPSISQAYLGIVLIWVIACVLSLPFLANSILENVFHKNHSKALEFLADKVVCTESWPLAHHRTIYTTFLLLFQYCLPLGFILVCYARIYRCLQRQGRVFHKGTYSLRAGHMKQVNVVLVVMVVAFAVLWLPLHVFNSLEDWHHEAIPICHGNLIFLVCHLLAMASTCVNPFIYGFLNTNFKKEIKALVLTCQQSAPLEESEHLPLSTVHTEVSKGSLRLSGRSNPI
row,Molecule,Y4 cAMP EC50
1,B1,18 nM
2,B2,> 1000 nM
3,B3,1 nM
4,B4,0.4 nM
5,B5,7 nM
6,B6,7 nM
7,B7,5 nM
8,B8,> 1000 nM
9,B9,130 nM
10,B10,2 nM
11,B11,> 1000 nM
12,B12,3.2 nM
13,B13,18 nM
14,B14,7 nM
15,B15,> 890 nM
16,B16,0.9 nM
17,B17,65 nM
18,B18,> 1000 nM
19,B19,> 1000 nM
20,B20,0.8 nM

# Biological target: T1, Y2 receptor
# Assay: cell-based or functional assay
row,Molecule,Y2 cAMP EC50
1,B1,92 nM
2,B2,> 1000 nM
3,B3,> 1000 nM
4,B4,> 1000 nM
5,B5,130 nM
6,B6,> 1000 nM
7,B7,> 1000 nM
8,B8,> 1000 nM
9,B9,> 1000 nM
10,B10,> 1000 nM
11,B11,> 1000 nM
12,B12,> 1000 nM
13,B13,54 nM
14,B14,73 nM
15,B15,> 1000 nM
16,B16,> 1000 nM
17,B17,63 nM
18,B18,> 1000 nM
19,B19,> 1000 nM
20,B20,> 1000 nM

# Biological target: T2, Y2 receptor
# Assay: Y2 receptor ACTOne based FLIPR assay (cAMP biosensor)
# Type: cell-based
# Text: ACTOne™ is an easily scaleable cAMP biosensor HTS platform for measurement of Gs and Gi coupled 7™ receptor signalling from BD Biosciences (San Jose, Calif.). The cells express a biosensor developed around a modified rat olfactory cyclic nucleotide gated (CNG) calcium channel—a fairly non-discriminatory ion channel that responds to cAMP and cGMP. The CNG has been engineered to be cAMP selective and thus function as a cAMP responsive biosensor that signals through calcium or membrane potential responsive dyes. Y2 or Y4 receptor expressing ACTOne HEK-293 cells are obtained from BD Biosciences. The cells are loaded with a calcium responsive dye that only distributes in the cytoplasm. Probenecid, an inhibitor of the organic anion transporter is added to prevent the dye from leaving the cell. A phosphodiesterase inhibitor is added to prevent formatted cAMP from being degraded. Isoproterenol (an β1/β2 agonist) is added to activate the adenylate cyclase. When an Y2 or Y4 receptor agonist is added, the adenylate cyclase is inactivated. The decreased calcium concentration in the cytoplasm is then detected as an increase in fluorescence. Together with the test substance, Isoproterenol at a concentration matching EC80, is added to all wells. • The cells are plated out in Greiner 384-well plates. […] The plates are covered with tinfoil to avoid light (the dye can be excited by the daylight, which results in higher baseline and variation). • The FLIPR (FLIPRtetra from Molecular Devices, CA, USA) adds 1 μl sample and 1 μl isoproterenol (0.05 μM final concentration) at the same time. • The fluorescence signal from the wells is measured 330 seconds after sample addition on the FLIPR.
row,Molecule,EC50
1,"CC[C@H](C)[C@H](NC(=O)[C@H](Cc1ccc(O)cc1)NC(=O)[C@H](CCCNC(=N)N)NC(=O)[C@H](CCCNC(=N)N)NC(=O)[C@H](CC(C)C)NC(=O)[C@H](CC(=O)O)NC(=O)[C@H](C)NC(=O)[C@H](C)NC(=O)[C@H](Cc1ccc(O)cc1)NC(=O)[C@H](CCC(N)=O)NC(=O)[C@H](C)NC(=O)[C@H](CC(C)C)NC(=O)[C@H](CCC(N)=O)NC(=O)[C@H](CCC(=O)O)NC(=O)[C@@H]1CCCN1C(=O)[C@H](CCCCNC(=O)COCCOCCNC(=O)COCCOCCNC(=O)CC[C@H](NC(=O)[C@H]1CC[C@H](CNC(=O)CCCCCCCCCCCCCCCCCCC(=O)O)CC1)C(=O)O)NC(=O)[C@H](C)NC(=O)[C@H](CC(N)=O)NC(=O)[C@H](CC(=O)O)NC(=O)CNC(=O)[C@@H]1CCCN1C(=O)[C@H](Cc1ccc(O)cc1)NC(=O)[C@@H](NC(=O)[C@@H]1CCCN1C(=O)[C@H](CCC(=O)O)NC(=O)[C@H](CC(C)C)NC(=O)[C@@H]1CCCN1C(=O)[C@H](C)N)C(C)C)C(=O)N[C@@H](CCC(N)=O)C(=O)N[C@@H](CC(C)C)C(=O)N[C@@H](CC(C)C)C(=O)N[C@H](C(=O)N[C@@H](CCCNC(=N)N)C(=O)N1CCC[C@H]1C(=O)N[C@@H](CCCNC(=N)N)C(=O)N[C@@H](Cc1ccc(O)cc1)C(N)=O)[C@@H](C)O [SEQ ID NO: 18, N-epsilon13-[2-(2-{2-[2-(2-{2-[(S)-4-Carboxy-4-({trans-4-[(19-carboxynonadecanoylamino)methyl]cyclohexanecarbonyl}amino)butyrylamino]-ethoxy}ethoxy)acetylamino]ethoxy}ethoxy)acetyl][Lys13,Leu17,Gln29,Leu30]hPP(1-36)] (H-APLEPVYPGDNAK([AEEA-AEEA-γGlu-Trx-C20 diacid])PEQLAQYAADLRRYIQLLTRPRY-NH2)",> 1000 nM
